Measured values from paper PMC3696691, “Zinc-induced Self-association of Complement C3b and Factor H” (The Journal of Biological Chemistry, 2013).

Target: T1, C3b (human, UniProt P01024 23-667; P01024 749-1663, free SH group of the C3b thioester blocked with 20 mM iodoacetamide)
T1 construct: Complement C3 beta chain, human; Complement C3b alpha' chain, human: the alpha chain without the ANA/C3a domain; here cut by trypsin; 12 domains; calculated mass 179.3 kDa; also called active C3b; source: made from C3 purified from human plasma by trypsin (1% w/w, 120 s, 37 °C), iodoacetamide added, purified on Superose 6
Assay: AUC; sedimentation velocity, 50,000 rpm, 20 °C; 1:1 mixture of 5.5 uM C3b and 5.5 uM FH incubated at 4 °C overnight; no zinc
Settings: both partners purified

stoichiometry N: 1
B1: complement Factor H (FH), wild-type (natural protein, human, UniProt P08603 19-1231, looked up)
chain: EDCNELPPRRNTEILTGSWSDQTYPEGTQAIYKCRPGYRSLGNVIMVCRKGEWVALNPLRKCQKRPCGHPGDTPFGTFTLTGGNVFEYGVKAVYTCNEGYQLLGEINYRECDTDGWTNDIPICEVVKCLPVTAPENGKIVSSAMEPDREYHFGQAVRFVCNSGYKIEGDEEMHCSDDGFWSKEKPKCVEISCKSPDVINGSPISQKIIYKENERFQYKCNMGYEYSERGDAVCTESGWRPLPSCEEKSCDNPYIPNGDYSPLRIKHRTGDEITYQCRNGFYPATRGNTAKCTSTGWIPAPRCTLKPCDYPDIKHGGLYHENMRRPYFPVAVGKYYSYYCDEHFETPSGSYWDHIHCTQDGWSPAVPCLRKCYFPYLENGYNQNYGRKFVQGKSIDVACHPGYALPKAQTTVTCMENGWSPTPRCIRVKTCSKSSIDIENGFISESQYTYALKEKAKYQCKLGYVTADGETSGSITCGKDGWSAQPTCIKSCDIPVFMNARTKNDFTWFKLNDTLDYECHDGYESNTGSTTGSIVCGYNGWSDLPICYERECELPKIDVHLVPDRKKDQYKVGEVLKFSCKPGFTIVGPNSVQCYHFGLSPDLPICKEQVQSCGPPPELLNGNVKEKTKEEYGHSEVVEYYCNPRFLMKGPNKIQCVDGEWTTLPVCIVEESTCGDIPELEHGWAQLSSPPYYYGDSVEFNCSESFTMIGHRSITCIHGVWTQLPQCVAIDKLKKCKSSNLIILEEHLKNKKEFDHNSNIRYRCRGKEGWIHTVCINGRWDPEVNCSMAQIQLCPPPPQIPNSHNMTTTLNYRDGEKVSVLCQENYLIQEGEEITCKDGRWQSIPLCVEKIPCSQPPQIEHGTINSSRSSQESYAHGTKLSYTCEGGFRISEENETTCYMGKWSSPPQCEGLPCKSPPEISHGVVAHMSDSYQYGEEVTYKCFEGFGIDGPAIAKCLGEKWSHPPSCIKTDCLSLPSFENAIPMGEKKDVYKAGEQVTYTCATYYKMDGASNVTCINSRWTGRPTCRDTSCVNPPTVQNAYIVSRQMSKYPSGERVRYQCRSPYEMFGDEEVMCLNGNWTEPPQCKDSTGKCGPPPPIDNGDITSFPLSVYAPASSVEYQCQNLYQLEGNKRITCRNGQWSEPPKCLHPCVISREIMENYNIALRWTAKQKLYSRTGESVEFVCKRGYRLSSRSHTLRTTCWDGKLEYPTCAKR
notes: Complement factor H, human, 20 SCR domains (SCR-1/20); Calculated mass 154.4 kDa; source: gel filtration
